The record followed here is patent US7338932.

Data set [1] concerns the target T1, EA2 acceptor peptide (PTTDSTTPAPTTK).
T1 chain: PTTDSTTPAPTTK

The target in data set [2] is T2, MUC2 acceptor peptide (PTTTPISTTTMVTPTPTPTC).
T2 chain: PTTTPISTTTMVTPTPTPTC

In data set [3] the target is T3, MUC7 acceptor peptide (Ac-CPPTPSATTPAPPSSSAPPETTAA).
T3 chain: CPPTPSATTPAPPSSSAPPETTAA

B1: human recombinant GalNAc-T3 (enzyme source of Example 6) (protein)
chain: MERNMKNKNKMLDLMLEAVNNIKDAMPKMQIGAPVRQNIDAGERPCLQGYYTAAELKPVLDRPPQDSNAPGASGKAFKTTNLSVEEQKEKERGEAKHCFNAFASDRISLHRDLGPDTRPPECIEQKFKRCPPLPTTSVIIVFHNEAWSTLLRTVHSVLYSSPAILLKEIILVDDASVDEYLHDKLDEYVKQFSIVKIVRQRERKGLITARLLGATVATAETLTFLDAHCECFYGWLEPLLARIAENYTAVVSPDIASIDLNTFEFNKPSPYGSNHNRGNFDWSLSFGWESLPDHEKQRRKDETYPIKTPTFAGGLFSISKEYFEYIGSYDEEMEIWGGENIEMSFRVWQCGGQLEIMPCSVVGHVFRSKSPHSFPKGTQVIARNQVRLAEVWMDEYKEIFYRRNTDAAKIVKQKAFGDLSKRFEIKHRLQCKNFTWYLNNIYPEVYVPDLNPVISGYIKSVGQPLCLDVGENNQGGKPLIMYTCHGLGGNQYFEYSAQHEIRHNIQKELCLHAAQGLVQLKACTYKGHKTVVTGEQIWEIQKDQLLYNPFLKMCLSANGEHPSLVSCNPSDPLQKWILSQND
With B1, the “galactosyltransferase activity with UDP-Gal” value in data set [1] was “EA2, 6.8 nmol/min/ml”; in data set [2] it was “Muc2, 0 nmol/min/ml”; in data set [3], “Muc7, 0.1 nmol/min/ml”.
